Experimental data published in the supplement of paper PMC9732359.
± gives the uncertainty stated by the source.

Assay: protein stability index of a GFP-peptide fusion (yeast GPS) (PSI 1-4); higher = more stable; sorted into four equal gates, so the index is relative within each strain
Summary of the method: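 Sequencing reads from sorted gates were used to score each peptide. The library consisted of tiled 17-residue yeast protein peptides fused downstream of GFP on a Cherry-expressing plasmid, pooled and carried in yeast. Mid-log cultures in leucine-free medium were split into four equal gates by GFP/Cherry ratio, and each gate's plasmids were PCR-amplified and Illumina-sequenced. The protein stability index adds up, over all gates, the read frequency multiplied by the gate number.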

For PFILEYDLMAPNGHIST [YMR129W/POM152], the protein stability index (doa10∆) was 2.94 ± 0.12, the protein stability index (pdr5∆) was 3 ± 0.17 and the protein stability index (ubr1∆) was 3.05 ± 0.097.

For DNEEWMNDVINTEEVNR [LIN1], the protein stability index (doa10∆) was 3.2 ± 0.071, the protein stability index (pdr5∆) was 3.46 ± 0.079 and the protein stability index (san1∆) was 3.23 ± 0.044. For the same sequence, the protein stability index (ubr1∆) was 3.39 ± 0.085.

Sequence ALERYDEAEGRFEVINN [SMC1] has a protein stability index (pdr5∆) of 1.12 ± 0.17.

Sequence TRPLTLSHGSLEHVLLV [FAS1] has a protein stability index (doa10∆) of 2.39 ± 0.068, a protein stability index (pdr5∆) of 2.72 ± 0.076 and a protein stability index (san1∆) of 2.67 ± 0.068. The protein stability index (ubr1∆) was 3.12 ± 0.065.

In the case of KRPPEIMSTEAHVNKVT [SIR4], the protein stability index (doa10∆) is reported as 2.99 ± 0.19, the protein stability index (pdr5∆) is reported as 2.96 ± 0.086 and the protein stability index (san1∆) is reported as 2.92 ± 0.1. For the same sequence, the protein stability index (ubr1∆) was 2.73 ± 0.12.

EIEELKSSIQNLNELES [SMC3] gave a protein stability index (doa10∆) of 1.66 ± 0.2, a protein stability index (pdr5∆) of 2.06 ± 0.17 and a protein stability index (san1∆) of 2.07 ± 0.28. For the same sequence, the protein stability index (ubr1∆) was 2.71 ± 0.21.

Sequence ISDYQQLESIYFRILLP [SWI1] has a protein stability index (doa10∆) of 2.24 ± 0.045, a protein stability index (pdr5∆) of 2.33 ± 0.037 and a protein stability index (san1∆) of 2.06 ± 0.049. It also gave a protein stability index (ubr1∆) of 2.34 ± 0.065.

For MTAAVTSSNIVLETHES [RPT6], the protein stability index (doa10∆) was 2.65 ± 0.094, the protein stability index (pdr5∆) was 2.78 ± 0.057 and the protein stability index (san1∆) was 2.79 ± 0.081. It also gave a protein stability index (ubr1∆) of 2.48 ± 0.059.

With VDEEDENGTHNDEVNED [YCG1] the protein stability index (doa10∆) was 3.46 ± 0.09, the protein stability index (pdr5∆) was 3.32 ± 0.17 and the protein stability index (san1∆) was 3.55 ± 0.11. The protein stability index (ubr1∆) was 3.51 ± 0.077.

Sequence RLQFAQGSVRRLTVSAR [QCR2] has a protein stability index (doa10∆) of 1.33 ± 0.075, a protein stability index (pdr5∆) of 1.39 ± 0.13 and a protein stability index (san1∆) of 1.77 ± 0.27. The protein stability index (ubr1∆) was 1.14 ± 0.073.

In the case of IDNYITNSVRLFEVNPS [SRP21], the protein stability index (doa10∆) is reported as 2.61 ± 0.1, the protein stability index (pdr5∆) is reported as 2.78 ± 0.088 and the protein stability index (san1∆) is reported as 2.54 ± 0.091. The protein stability index (ubr1∆) was 2.28 ± 0.12.

In the case of LYQLFKTCIQGINSPLS [YJL039C/NUP192], the protein stability index (doa10∆) is reported as 1.83 ± 0.12, the protein stability index (pdr5∆) is reported as 2.05 ± 0.087 and the protein stability index (san1∆) is reported as 1.64 ± 0.16. It also gave a protein stability index (ubr1∆) of 2.04 ± 0.11.

Sequence KIMPKDILQITKKPLMV [SIR4] has a protein stability index (doa10∆) of 2.62 ± 0.088, a protein stability index (pdr5∆) of 2.79 ± 0.17 and a protein stability index (san1∆) of 2.32 ± 0.1. For the same sequence, the protein stability index (ubr1∆) was 2.56 ± 0.09.

With TPLLENISISTSELGND [BRR2] the protein stability index (doa10∆) was 2.16 ± 0.058, the protein stability index (pdr5∆) was 2.05 ± 0.049 and the protein stability index (san1∆) was 2.2 ± 0.07. The protein stability index (ubr1∆) was 2.03 ± 0.042.

DSVATVIEVIETKWDDA [YJR042W/NUP85] gave a protein stability index (doa10∆) of 2.32 ± 0.24, a protein stability index (pdr5∆) of 2.64 ± 0.28 and a protein stability index (san1∆) of 2.16 ± 0.17. For the same sequence, the protein stability index (ubr1∆) was 2.1 ± 0.27.

PDIVGHEFTLSFTYELK [BRR2] gave a protein stability index (doa10∆) of 2 ± 0.038, a protein stability index (pdr5∆) of 2.06 ± 0.036 and a protein stability index (san1∆) of 2.15 ± 0.05. It also gave a protein stability index (ubr1∆) of 2.21 ± 0.033.

CHLYSQRMHAIHEIDER [NNF1] showed a protein stability index (doa10∆) of 1.24 ± 0.082, a protein stability index (pdr5∆) of 1.64 ± 0.065 and a protein stability index (san1∆) of 1.8 ± 0.1. It also gave a protein stability index (ubr1∆) of 1.63 ± 0.073.

Sequence TKIFNSVAEVFQKAQGS [YCG1] has a protein stability index (doa10∆) of 1.89 ± 0.12, a protein stability index (pdr5∆) of 1.55 ± 0.23 and a protein stability index (ubr1∆) of 1.5 ± 0.07.

Work on GQKLLAIKYGYEDSGST [SRB4] yielded a protein stability index (doa10∆) of 2.83 ± 0.11, a protein stability index (pdr5∆) of 2.91 ± 0.098 and a protein stability index (san1∆) of 2.53 ± 0.1. It also gave a protein stability index (ubr1∆) of 3.25 ± 0.11.

Sequence TLYSVKSKEDMKQLKFF [SNU114] has a protein stability index (doa10∆) of 3.28 ± 0.17, a protein stability index (pdr5∆) of 3.33 ± 0.13 and a protein stability index (san1∆) of 3.17 ± 0.083. For the same sequence, the protein stability index (ubr1∆) was 3.1 ± 0.087.

In the case of LTDLDSPSEFVDVAIPC [RPS0A], the protein stability index (doa10∆) is reported as 2.77 ± 0.091, the protein stability index (pdr5∆) is reported as 2.46 ± 0.073 and the protein stability index (san1∆) is reported as 2.31 ± 0.077. The protein stability index (ubr1∆) was 2.56 ± 0.063.

Work on LGEFSITYTPVRHGRAG [RPS15] yielded a protein stability index (doa10∆) of 1.85 ± 0.15, a protein stability index (pdr5∆) of 1.85 ± 0.12 and a protein stability index (san1∆) of 1.61 ± 0.15.

PQFDSTQPKSSSSMDMQ [SSN3] showed a protein stability index (doa10∆) of 2.94 ± 0.069, a protein stability index (pdr5∆) of 3 ± 0.068 and a protein stability index (san1∆) of 2.95 ± 0.05. The protein stability index (ubr1∆) was 3.02 ± 0.044.

For HETLARSSEEINSDNQN [RPN3], the protein stability index (doa10∆) was 3.15 ± 0.26 and the protein stability index (ubr1∆) was 3.16 ± 0.19.

In the case of VGVIIFILTIATAFLGY [COB], the protein stability index (doa10∆) is reported as 2.31 ± 0.07, the protein stability index (pdr5∆) is reported as 1.84 ± 0.052 and the protein stability index (san1∆) is reported as 1.82 ± 0.072. It also gave a protein stability index (ubr1∆) of 2.63 ± 0.039.

MAVGKNKRLSKGKKGQK [RPS1A] showed a protein stability index (doa10∆) of 1.5 ± 0.14, a protein stability index (pdr5∆) of 1.62 ± 0.086 and a protein stability index (san1∆) of 1.65 ± 0.15. For the same sequence, the protein stability index (ubr1∆) was 1.45 ± 0.12.

Work on NITKNLKTFNGSLALLK [POP4] yielded a protein stability index (pdr5∆) of 3.19 ± 0.15, a protein stability index (san1∆) of 2.93 ± 0.082 and a protein stability index (ubr1∆) of 3.13 ± 0.1.
